Laboratory results published in patent US20190315845A1 (ANNEXON, published 2019).
Read-outs that look alike come from different tables or passages of the source.

Legend:
human C1q [1] = molecular target: T1, human C1q (human, UniProt P02745 23-245; P02746 28-253; P02747 29-245); test: competition ELISA, plate-coated human C1q; competitor biotinylated mouse M1 (0.02 µg/ml); IC50 normalised to chimeric M1 (reference itself)
T1 construct: Purified human C1q protein (plate-coated in ELISA, ligand or analyte in SPR, in human serum in CH50); also called hC1q; complement factor C1q
Experimental: (§1) The binding of humanized M1 variants to human C1q was analyzed by competition ELISA. A three-fold dilution series of test antibody (5 μg/ml to 0.002 μg/ml) was premixed with a constant concentration of biotinylated mouse M1 antibody (0.02 μg/ml, final concentration) before incubating for 1 hour at 37° C. with shaking on plates pre-coated with human C1q at 1.0 μg/ml. The binding of mouse M1 antibody was detected with streptavidin-peroxidase conjugate (Sigma-Aldrich cat. no. 55512) and TMB (3,3′,5,5′-tetramethylbenzidine) substrate (Thermo Scientific cat. no. 34029). The reaction was stopped with 1M HCl, absorbance read at 450 nm on a Dynex Technologies MRX TC II plate reader and the binding curves plotted.
The binding curves were used to calculate IC₅₀ values (concentration of test antibody that inhibits labelled competitor binding by 50%) for each antibody normalized to the IC₅₀ of chimeric M1 and antibody yields from NS0 transfectants were also compared (Table 1).

human C1q [2] = molecular target: T1, human C1q; test: competition ELISA on plate-bound human C1q against biotinylated mouse M1 antibody (0.02 µg/ml); bound biotin-M1 read as OD450
Source text: (§2) FIG. 4A, FIG. 4B, FIG. 4C, and FIG. 4D depicts competition ELISA assays for human C1q. A dilution series of purified humanized anti-C1q antibodies were competed against a fixed concentration of biotinylated monoclonal antibody M1 for binding to human C1q. Bound biotinylated M1 antibody was detected using streptavidin-peroxidase conjugate and TMB substrate. FIG. 4A depicts the results with the humanized antibodies VH1/Vκ1, VH1/Vκ2, and VH1/Vκ3. FIG. 4B depicts the results with the humanized antibodies VH1/Vκ4, VH2/Vκ1, VH2/Vκ2, VH2/Vκ3, and VH2/Vκ4. FIG. 4C depicts the results with the humanized antibodies VH3/Vκ1, VH3/Vκ2, VH3/Vκ3, and VH3/Vκ4. FIG. 4D depicts the results with the humanized antibodies VH4/Vκ1, VH4/Vκ2, […], and VH4/Vκ4.
as §1

mouse C1q [3] = molecular target: T2, mouse C1q (mouse, UniProt P98086 23-245; P14106 26-253; Q02105 30-246); test: competition ELISA, plate-coated mouse C1q; competitor biotinylated chimeric M1 (0.03 µg/ml); IC50 normalised to chimeric M1 (reference itself)
T2 construct: Purified mouse C1q protein; also called mC1q
Experimental: (§3) The binding of humanized M1 variants to mouse C1q was analyzed by competition ELISA on four selected antibodies, VH1/Vκ1, VH3/Vκ1, VH3/Vκ4 and VH4/Vκ3. An irrelevant IgG4 (S241P L248E) antibody was also included as a binding control. A three-fold dilution series of test antibody (100 μg/ml to 0.046 μg/ml) was premixed with a constant concentration of biotinylated chimeric M1 antibody (0.03 μg/ml, final concentration) before incubating for 1 hour at 37° C. with shaking on plates pre-coated with mouse C1q at 5.0 μg/ml. The binding of chimeric M1 antibody was detected with streptavidin-peroxidase conjugate (Sigma-Aldrich cat. no. S5512) and TMB substrate (Thermo Scientific cat. no. 34029). The reaction was stopped with 1M HCl, absorbance read at 450 nm on a Dynex Technologies MRX TC II plate reader and the binding curves plotted.
(§4) The binding curves were used to calculate IC₅₀ values for each antibody normalized to the IC₅₀ of chimeric M1 (Table 2).

mouse C1q [4] = molecular target: T2, mouse C1q; test: competition ELISA on plate-bound mouse C1q against biotinylated chimeric M1 antibody (0.03 µg/ml); bound biotin-chimeric M1 read as OD450
Experimental: as §3, §4

human C1q [5] = molecular target: T1, human C1q; test: competition ELISA on plate-bound human C1q against biotinylated mouse M1 antibody (0.02 µg/ml); bound biotin-M1 read as OD450; remark: listed apart in the source
Source text: as §2, §1

human C1q [6] = molecular target: T1, human C1q; test: as above; remark: listed apart in the source
Source text: as §2, §1

human C1q [7] = molecular target: T1, human C1q; test: as above; remark: listed apart in the source
Source text: as §2, §1

T1 sequence (P02745 23-245 limits assumed, chain 1 of 3): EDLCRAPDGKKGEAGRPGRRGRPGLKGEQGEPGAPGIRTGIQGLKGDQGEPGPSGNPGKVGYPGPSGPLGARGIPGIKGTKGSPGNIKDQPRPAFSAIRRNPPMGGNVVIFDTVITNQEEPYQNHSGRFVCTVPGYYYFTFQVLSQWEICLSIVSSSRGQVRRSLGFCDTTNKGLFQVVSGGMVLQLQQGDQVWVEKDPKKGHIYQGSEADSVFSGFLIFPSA
T1 sequence (P02746 28-253 limits assumed, chain 2 of 3): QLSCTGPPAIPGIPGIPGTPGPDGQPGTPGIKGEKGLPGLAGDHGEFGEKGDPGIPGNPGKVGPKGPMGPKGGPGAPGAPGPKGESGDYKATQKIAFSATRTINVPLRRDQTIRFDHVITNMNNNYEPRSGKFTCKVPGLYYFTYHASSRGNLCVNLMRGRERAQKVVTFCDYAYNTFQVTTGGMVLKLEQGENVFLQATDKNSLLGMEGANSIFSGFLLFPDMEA
T1 sequence (P02747 29-245 limits assumed, chain 3 of 3): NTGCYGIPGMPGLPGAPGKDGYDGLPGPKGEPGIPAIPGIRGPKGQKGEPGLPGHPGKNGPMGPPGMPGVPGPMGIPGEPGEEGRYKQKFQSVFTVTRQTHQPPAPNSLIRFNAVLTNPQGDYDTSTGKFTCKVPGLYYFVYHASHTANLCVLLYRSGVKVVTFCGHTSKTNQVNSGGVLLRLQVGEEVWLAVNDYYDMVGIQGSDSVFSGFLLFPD
T2 sequence (P98086 23-245 limits assumed, chain 1 of 3): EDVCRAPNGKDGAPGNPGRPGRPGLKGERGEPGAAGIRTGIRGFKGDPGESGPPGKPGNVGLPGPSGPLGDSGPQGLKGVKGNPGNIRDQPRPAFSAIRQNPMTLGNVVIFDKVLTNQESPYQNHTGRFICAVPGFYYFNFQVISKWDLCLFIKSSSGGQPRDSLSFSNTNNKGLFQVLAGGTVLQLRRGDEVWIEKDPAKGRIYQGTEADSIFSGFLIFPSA
T2 sequence (P14106 26-253 limits assumed, chain 2 of 3): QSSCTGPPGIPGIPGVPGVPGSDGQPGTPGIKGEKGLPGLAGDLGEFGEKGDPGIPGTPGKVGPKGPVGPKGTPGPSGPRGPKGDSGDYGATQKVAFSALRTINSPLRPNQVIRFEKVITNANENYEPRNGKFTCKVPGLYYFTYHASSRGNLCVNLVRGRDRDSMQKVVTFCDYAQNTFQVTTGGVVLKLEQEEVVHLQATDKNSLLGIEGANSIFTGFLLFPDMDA
T2 sequence (Q02105 30-246 limits assumed, chain 3 of 3): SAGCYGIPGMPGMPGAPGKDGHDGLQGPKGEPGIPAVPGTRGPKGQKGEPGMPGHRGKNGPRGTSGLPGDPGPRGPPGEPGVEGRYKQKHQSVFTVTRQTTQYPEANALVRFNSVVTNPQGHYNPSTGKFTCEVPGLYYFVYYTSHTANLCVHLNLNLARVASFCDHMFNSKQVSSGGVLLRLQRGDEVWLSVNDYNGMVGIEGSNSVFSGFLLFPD

B1: chimeric M1 antibody (antibody, human IgG4)
heavy: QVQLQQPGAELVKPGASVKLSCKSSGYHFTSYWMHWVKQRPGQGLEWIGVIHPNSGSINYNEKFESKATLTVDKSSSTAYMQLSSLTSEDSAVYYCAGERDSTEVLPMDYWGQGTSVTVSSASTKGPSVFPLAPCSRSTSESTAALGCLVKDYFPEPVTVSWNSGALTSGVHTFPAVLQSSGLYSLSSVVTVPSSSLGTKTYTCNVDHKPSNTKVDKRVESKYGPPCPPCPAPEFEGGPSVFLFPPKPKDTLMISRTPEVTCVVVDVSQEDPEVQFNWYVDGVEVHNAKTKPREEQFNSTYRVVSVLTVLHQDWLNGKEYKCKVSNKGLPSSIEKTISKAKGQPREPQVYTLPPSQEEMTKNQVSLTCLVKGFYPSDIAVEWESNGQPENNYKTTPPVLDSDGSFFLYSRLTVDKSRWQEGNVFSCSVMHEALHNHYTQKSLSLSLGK
light: DVQITQSPSYLAASPGETITINCRASKSINKYLAWYQEKPGKTNKLLIYSGSTLQSGIPSRFSGSGSGTDFTLTISSLEPEDFAMYYCQQHNEYPLTFGAGTKLELK
notes: Murine M1 V regions with human IgG4 (S241P L248E) and human kappa constant regions, expressed in NS0; also called 3E2; not shown: human kappa light chain constant region
- Relative IC50 (human C1q [1]): 1 ratio to chimeric M1
- IC50 (read off the curve) (human C1q [2]): ~0.3 µg/mL
- Relative IC50 (mouse C1q [3]): 1 ratio to chimeric M1
- IC50 (read off the curve) (mouse C1q [4]): ~3 µg/mL
- IC50 (read off the curve) (human C1q [5]): ~0.3 µg/mL
- IC50 (read off the curve) (human C1q [6]): ~0.3 µg/mL
- IC50 (read off the curve) (human C1q [7]): ~0.3 µg/mL
